Key:
[1] = molecular target: human CD127 on human blood T cells (human) (UniProt P16871); assay: flow cytometry on CD3+ cells of three human donors
[2] = molecular target: CD127-Fc (Sino Biological) (UniProt P16871); assay: SPR (Biacore), single cycle kinetics, CD127-Fc immobilised on CM5 chip, bivalent model
[3] = molecular target: T1, CD127-Fc (Sino Biological) (UniProt P16871 21-239, limits assumed); assay: as above
T1 construct: whole entry named; Immobilised by amine coupling on a CM5 chip; also called CD127 protein; not shown: Fc part of the bought fusion; not described
T1 sequence (looked up): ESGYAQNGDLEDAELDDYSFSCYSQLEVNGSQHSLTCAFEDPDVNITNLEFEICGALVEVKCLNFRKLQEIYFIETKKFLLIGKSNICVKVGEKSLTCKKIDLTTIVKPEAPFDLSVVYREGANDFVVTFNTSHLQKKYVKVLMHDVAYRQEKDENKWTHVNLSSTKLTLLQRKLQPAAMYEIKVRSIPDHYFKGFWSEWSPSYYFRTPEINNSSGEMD
Method: CD127-Fc was immobilized by amine coupling on a CM5 chip. The carboxylic groups were esterified by injection of an NHS/EDC mix for 7 min. The CD127-Fc proteins diluted to 20 μg/ml in Na acetate buffer pH 4.6 were injected until an SPR signal of 500 RU was obtained. Free reactive sites were inactivated by injection of 1 M ethanolamine pH8.5 for 10 min.
Antibodies were analyzed in Single Cycle Kinetics (SCK) on CD127 to determine kinetic and affinity parameters. The surface functionalized with CD127-Fc was regenerated between each cycle by injection of a 4 M MgCl 2 solution for 30 seconds.

What does the source list for “eBIORDR5 (CD127 Monoclonal Antibody, eBioscience from Invitrogen/Thermo Fisher Scientific catalog # 14-1278-82)”?
mean fluorescence intensity [1]: 4140 MFI; Kd [2]: 68.3 pM

B1: Effi3-VH3VL3 (antibody, V domains shown)
VH: AVQLVESGGGLVQPGGSLKITCAASGFTFTNAAMYWVRQAPGKGLEWVARIRTKANNYATYYADSVKGRFTISRDDSKSTVYLQMDSVKTEDTATYYCIVVVLTTTRDYFDYWGQGVLVTVSS
VL: DIVLTQSPSSLPVTPGEPASISCRSSQSLLTVKGITSLYWFLQKPGQSPKLLIYRMSNRDSGVPDRFSGSGSETDFTLKISRVEAEDVGTYYCAQFLEYPHTFGAGTKLELKR
notes: also called Effi3-VH3L3; Effi3 clone VH3VL3
How did the Kd [3] turn out when B1 was run?
Its Kd is 1620 pM.

— US20200362300A1 (OSE IMMUNOTHERAPEUTICS, published 2020)
